B1: Nb95 (VHH)
VHH: QVQLVESGGGLVQAGGSLRLSCAASGRTFSSYSMGWFRQAQGKEREFVATINGNGRDTYYTNSVKGRFTISRDDATNTVYLQMNSLKPEDTAIYYCAADKDVYYGYTSFPNEYEYWGQGTQVTVS
B2: humanized Nb21 (hNb21) (VHH)
VHH: QVQLVESGGGLVQPGGSLRLSCAASWFRRAPGKEREFVAYADSVKGRFTISRDNAKNTLYLQMNSLRAEDTAVYYCAAWGQGTLVTVS
B3: Nb93 (VHH)
VHH: EVQLVESGGGLVQPGGSLRLSCAASGFTFSSYAMSWVRQAPGKGREWVAGITPGSGTFYADSVKGRFTISRDNAKNTLSLEINSLKPEDTALYYCAKCRQEFSWDFSSRDPDDFDYWGQGTQVTVS
B4: Nb105 (VHH)
VHH: HVQLVESGGGLVQAGGSLRLSCAVSGRTFSTYGMAWFRQAPGKERDFVATITRSGETTLYADSVKGRFTISRDNAKNTVYLQMNSLKIEDTAVYYCAVRRDSSWGYSRDLFEYDYWGQGTQVTVS
B5: Nb17 (VHH)
VHH: HVQLVESGGGLVQAGGSLRLSCAASGSIFSSNAMSWYRQAPGKQRELVASITSGGNADYADSVKGRFTISRDKNTVYPEMSSLKPADTAVYYCHAVGQEASAYAPRAYWGQGTQVTVS
B6: Nb34 (VHH)
VHH: DVQLVESGGGLVQAGGSLRLSCAASGFTFSNYVMYWGRQAPGKGREWVSGIDSDGSDTAYASSVKGRFTISRDNAKNTLYLQMNNLKPEDTALYYCVKSKDPYGSPWTRSEFDDYWGQGTQVTVS
B7: Nb64 (VHH)
VHH: QVQLVESGGGLVQAGGSLRLSCAVSGRTFSIAGMGWFRQAPGKDREFLGGITWNDGTTWYADSVKGRFTISRDNAKNMLSLRMNSLKPEDTAVYYCAAGPRLGSTPRAYDYWGQGTQVTVS
B8: Nb9 (VHH)
VHH: HVQLVESGGGLVQTGGSLRLSCAFSGYTFSTFPTAWFRQAPGKEREFVAGIRWNGGSRDYTEYADFVKGRFTISRDNAKNMIYLQMISLKPEDTALYYCAASHGVVDGTSVNGYRYWGQGTQVTVS
B9: Nb21 WT (VHH)
VHH: QVQLVESGGGLVQAGGSLRLSCAVSGLGAHRVGWFRRAPGKEREFVAAIGANGGNTNYLDSVKGRFTISRDNAKNTIYLQMNSLKPQDTAVYYCAARDIETAEYTYWGQGTQVTVSS

Biological target: RBD (SARS-CoV-2 spike) (SARS-CoV-2, UniProt P0DTC2 319-541)
Experiment: ELISA

Point of comparison: B8, EC50 2.76 nM. Against it:
- B1 — within 1.5-fold, 3.77 nM
- B2 — 2.1-fold lower, 1.34 nM
- B3 — 2.4-fold lower, 1.13 nM
- B4 — 1.6-fold lower, 1.69 nM
- B5 — 2.8-fold lower, 0.97 nM
- B6 — 5.2-fold lower, 0.53 nM
- B7 — 2.3-fold lower, 1.22 nM

Biological target: RBD (SARS-CoV-2, UniProt P0DTC2 319-541)
Experiment: ELISA

B9 showed an EC50 of 1.69 nM.

Reference: patent US20250336476A1 (published 2025)
